Assay results published in patent CN107286237A.

Columns and labels:
Test in all cases: SPR, BiaCore X-100, TRN1007 captured by goat anti-human IgG on CM5 chip, E2-core as analyte
[1] = biological target: HCV包膜糖蛋白 HCV-E2-core 基因型4a (Hepatitis C virus genotype 4a)
[2] = biological target: HCV包膜糖蛋白 HCV-E2-core 基因型2a (Hepatitis C virus genotype 2a)
[3] = biological target: HCV包膜糖蛋白 HCV-E2-core 基因型7a (Hepatitis C virus genotype 7a)
[4] = biological target: HCV包膜糖蛋白 HCV-E2-core 基因型6a (Hepatitis C virus genotype 6a)

B1: 全人源抗HCV单克隆中和抗体TRN1007 (antibody, V domains shown)
VH: EVQLVQSGAEVKKPGSSVKVSCKASGGSFRSYGFSWVRQAPGQGLEWMGRIIPAANFADYAPKFQDRVTISADKSTSTAYMELKSLRSDDTAVYYCARDQDLSGELTALYYYHGLDVWGQGTTVTVSS
VL: EIVLTQSPGTLSLSPGQRVTLSCRASQSVSNNYIAWYQQKPGQAPRLLISGASSRATGIPDRFSGTGSGTDFTLAISRLEPEDFAVYYCQQYGDSFWTFGQGTKVEIK
What does the source list for B1?
Kd [1]: 1.59 pM; koff [1]: 7.17e-08 s⁻¹; kon [1]: 45100 M⁻¹ s⁻¹; Kd [2]: 1.07 pM; koff [2]: 8.63e-08 s⁻¹; kon [2]: 80500 M⁻¹ s⁻¹; Kd [3]: 17.8 pM; koff [3]: 1.68e-06 s⁻¹; kon [3]: 94400 M⁻¹ s⁻¹; Kd [4]: 179 pM; koff [4]: 5.36e-07 s⁻¹; kon [4]: 2990 M⁻¹ s⁻¹
